T1: WW1-WW2 tandem domains (residues 16-91) of human WWOX (human, UniProt Q9NZC7 16-91)
T1 sequence (looked up): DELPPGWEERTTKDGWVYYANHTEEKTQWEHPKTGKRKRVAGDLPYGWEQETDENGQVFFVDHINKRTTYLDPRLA

T2: WW1 domain (residues 16-50) of human WWOX (human, UniProt Q9NZC7 16-50)
T2 chain (looked up): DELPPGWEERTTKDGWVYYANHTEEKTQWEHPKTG

T3: engineered WW1-WW2rw tandem domains of WWOX (human, UniProt Q9NZC7 16-91, E66R | Y85W)
T3 sequence (looked up): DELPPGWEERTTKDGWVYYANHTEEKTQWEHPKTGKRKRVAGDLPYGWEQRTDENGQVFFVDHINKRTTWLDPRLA


Columns and labels:
Assay in all cases: ITC
[1] = molecular target: T1, WW1-WW2 tandem domains (residues 16-91) …
[2] = molecular target: T2, WW1 domain (residues 16-50) of human …
[3] = molecular target: engineered WW2_RW domain of WWOX (E66R/Y85W double-mutant of WW2 domain) (human, UniProt Q9NZC7 57-91, E66R | Y85W)
[4] = molecular target: T3, engineered WW1-WW2rw tandem domains of …

Kd [1] [µM]	Kd [2] [µM]	Kd [3] [µM]	dH [3] [kcal/mol]	Kd [4] [µM]	dH [4] [kcal/mol]	stoichiometry N [4]	dH [1] [kcal/mol]	stoichiometry N [1]	dH [2] [kcal/mol]	Binder
> 1000	> 1000	80	-5.59	103	-8.66	1.07				STFKPPAYEDVV [WBP1_PY1 peptide (12-mer spanning the PY1 PPXY motif of human WBP1)]
132	366	123	-12.1	101	-10.1	2.02	-9.85	0.99	-16.1	PGTPPPPYTVAP [WBP1_PY2 peptide (12-mer spanning the PY2 PPXY motif of human WBP1)]
326	> 1000	69	-8.44	86	-11.5	1.02	-3.36	1.03		VQPPPPPYPGPM [WBP2_PY2 peptide (12-mer spanning the PY2 PPXY motif of human WBP2)]

Source: PMC3412936 (Journal of molecular biology, 2012)
